Data taken from paper PMC3751551.

T1: Vm-EYFP, P05923
T1 chain: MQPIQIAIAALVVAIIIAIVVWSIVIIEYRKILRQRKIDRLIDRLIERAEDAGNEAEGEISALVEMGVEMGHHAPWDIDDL


Biological target: Rluc-BST2 (UniProt Q10589)
Experiment: BRET assay
Details: HEK293T cells; parent: est. 1.4; read off a plot

Molecule | response
Vm-EYFP (from UniProt P05923) A14V | 1.2
Vm-EYFP (from UniProt P05923) A14V; I15A; I16A | 0.76
Vm-EYFP (from UniProt P05923) A18V | 0.52
Vm-EYFP (from UniProt P05923) E28A | 1.1
Vm-EYFP (from UniProt P05923) I5A; V6A; A7V | 0.98
Vm-EYFP (from UniProt P05923) I8A; V9A; A10V | 1.2
Vm-EYFP (from UniProt P05923) I15A | 1.2
Vm-EYFP (from UniProt P05923) I16A | 1.2
Vm-EYFP (from UniProt P05923) I17A | 1.4
Vm-EYFP (from UniProt P05923) I17A; A18V; I19A | 0.58
Vm-EYFP (from UniProt P05923) I19A | 1.2
Vm-EYFP (from UniProt P05923) I26A | 1.3
Vm-EYFP (from UniProt P05923) I26A; I27A; E28A | 0.85
Vm-EYFP (from UniProt P05923) I27A | 1.3
Vm-EYFP (from UniProt P05923) L11A | 0.93
Vm-EYFP (from UniProt P05923) L11A; V12A; V13A | 0.9
Vm-EYFP (from UniProt P05923) S23A; I24A; V25A | 1.1
Vm-EYFP (from UniProt P05923) V12A | 1.3
Vm-EYFP (from UniProt P05923) V13A | 1.3
Vm-EYFP (from UniProt P05923) V20A | 1.3
Vm-EYFP (from UniProt P05923) V20A; V21A; W22A | 0.41
Vm-EYFP (from UniProt P05923) V21A | 1.1
Vm-EYFP (from UniProt P05923) W22A | 0.69

Biological target: T1, Vm-EYFP, P05923
Experiment: BRET assay
Details: chain shown with the change; HEK293T cells; forty-eight hours post-transfection; parent: est. 1.6; read off a plot

Molecule | response
Rluc-BST2, Q10589 P40A; L41A; I42A (protein) MASTSYDYCRVPMEDGDKRCKLLLGIGILVLLIIVILGVAAAIFTIKANSEACRDGLRAVMECRNVTHLLQQELTEAQKGFQDVEAQAATCNHTVMALMASLDAEKAQGQKKVEELEGEITTLNHKLQDASAEVERLRRENQVLSVRIADKKYYPSSQDSS | 0.82
Rluc-BST2, Q10589 I34A; V35A; I36A (protein) MASTSYDYCRVPMEDGDKRCKLLLGIGILVLLIAAALGVPLIIFTIKANSEACRDGLRAVMECRNVTHLLQQELTEAQKGFQDVEAQAATCNHTVMALMASLDAEKAQGQKKVEELEGEITTLNHKLQDASAEVERLRRENQVLSVRIADKKYYPSSQDSS | 0.88
Rluc-BST2, Q10589 G25A; I26A; G27A (protein) MASTSYDYCRVPMEDGDKRCKLLLAAAILVLLIIVILGVPLIIFTIKANSEACRDGLRAVMECRNVTHLLQQELTEAQKGFQDVEAQAATCNHTVMALMASLDAEKAQGQKKVEELEGEITTLNHKLQDASAEVERLRRENQVLSVRIADKKYYPSSQDSS | 1.7
Rluc-BST2, Q10589 L31A; L32A; I33A (protein) MASTSYDYCRVPMEDGDKRCKLLLGIGILVAAAIVILGVPLIIFTIKANSEACRDGLRAVMECRNVTHLLQQELTEAQKGFQDVEAQAATCNHTVMALMASLDAEKAQGQKKVEELEGEITTLNHKLQDASAEVERLRRENQVLSVRIADKKYYPSSQDSS | 1.3
Rluc-BST2, Q10589 I46A; K47A (protein) MASTSYDYCRVPMEDGDKRCKLLLGIGILVLLIIVILGVPLIIFTAAANSEACRDGLRAVMECRNVTHLLQQELTEAQKGFQDVEAQAATCNHTVMALMASLDAEKAQGQKKVEELEGEITTLNHKLQDASAEVERLRRENQVLSVRIADKKYYPSSQDSS | 1.6
Rluc-BST2, Q10589 I28A; L29A; V30A (protein) MASTSYDYCRVPMEDGDKRCKLLLGIGAAALLIIVILGVPLIIFTIKANSEACRDGLRAVMECRNVTHLLQQELTEAQKGFQDVEAQAATCNHTVMALMASLDAEKAQGQKKVEELEGEITTLNHKLQDASAEVERLRRENQVLSVRIADKKYYPSSQDSS | 1.4
Rluc-BST2, Q10589 L22A; L23A; L24A (protein) MASTSYDYCRVPMEDGDKRCKAAAGIGILVLLIIVILGVPLIIFTIKANSEACRDGLRAVMECRNVTHLLQQELTEAQKGFQDVEAQAATCNHTVMALMASLDAEKAQGQKKVEELEGEITTLNHKLQDASAEVERLRRENQVLSVRIADKKYYPSSQDSS | 1.3
Rluc-BST2, Q10589 L37A; G38A; V39A (protein) MASTSYDYCRVPMEDGDKRCKLLLGIGILVLLIIVIAAAPLIIFTIKANSEACRDGLRAVMECRNVTHLLQQELTEAQKGFQDVEAQAATCNHTVMALMASLDAEKAQGQKKVEELEGEITTLNHKLQDASAEVERLRRENQVLSVRIADKKYYPSSQDSS | 0.95
Rluc-BST2, Q10589 I43A; F44A; T45A (protein) MASTSYDYCRVPMEDGDKRCKLLLGIGILVLLIIVILGVPLIAAAIKANSEACRDGLRAVMECRNVTHLLQQELTEAQKGFQDVEAQAATCNHTVMALMASLDAEKAQGQKKVEELEGEITTLNHKLQDASAEVERLRRENQVLSVRIADKKYYPSSQDSS | 1.6

Same assay, conditions: chain shown with the change; HEK293T cells; parent: est. 1.6; read off a plot

Molecule | response
Rluc-BST2, Q10589 I36A (protein) MASTSYDYCRVPMEDGDKRCKLLLGIGILVLLIIVALGVPLIIFTIKANSEACRDGLRAVMECRNVTHLLQQELTEAQKGFQDVEAQAATCNHTVMALMASLDAEKAQGQKKVEELEGEITTLNHKLQDASAEVERLRRENQVLSVRIADKKYYPSSQDSS | 1.5
Rluc-BST2, Q10589 I34A (protein) MASTSYDYCRVPMEDGDKRCKLLLGIGILVLLIAVILGVPLIIFTIKANSEACRDGLRAVMECRNVTHLLQQELTEAQKGFQDVEAQAATCNHTVMALMASLDAEKAQGQKKVEELEGEITTLNHKLQDASAEVERLRRENQVLSVRIADKKYYPSSQDSS | 1.1
Rluc-BST2, Q10589 V39A (protein) MASTSYDYCRVPMEDGDKRCKLLLGIGILVLLIIVILGAPLIIFTIKANSEACRDGLRAVMECRNVTHLLQQELTEAQKGFQDVEAQAATCNHTVMALMASLDAEKAQGQKKVEELEGEITTLNHKLQDASAEVERLRRENQVLSVRIADKKYYPSSQDSS | 1.6
Rluc-BST2, Q10589 P40A (protein) MASTSYDYCRVPMEDGDKRCKLLLGIGILVLLIIVILGVALIIFTIKANSEACRDGLRAVMECRNVTHLLQQELTEAQKGFQDVEAQAATCNHTVMALMASLDAEKAQGQKKVEELEGEITTLNHKLQDASAEVERLRRENQVLSVRIADKKYYPSSQDSS | 1.1
Rluc-BST2, Q10589 G38A (protein) MASTSYDYCRVPMEDGDKRCKLLLGIGILVLLIIVILAVPLIIFTIKANSEACRDGLRAVMECRNVTHLLQQELTEAQKGFQDVEAQAATCNHTVMALMASLDAEKAQGQKKVEELEGEITTLNHKLQDASAEVERLRRENQVLSVRIADKKYYPSSQDSS | 1.5
Rluc-BST2, Q10589 L41A (protein) MASTSYDYCRVPMEDGDKRCKLLLGIGILVLLIIVILGVPAIIFTIKANSEACRDGLRAVMECRNVTHLLQQELTEAQKGFQDVEAQAATCNHTVMALMASLDAEKAQGQKKVEELEGEITTLNHKLQDASAEVERLRRENQVLSVRIADKKYYPSSQDSS | 0.93
Rluc-BST2, Q10589 V35A (protein) MASTSYDYCRVPMEDGDKRCKLLLGIGILVLLIIAILGVPLIIFTIKANSEACRDGLRAVMECRNVTHLLQQELTEAQKGFQDVEAQAATCNHTVMALMASLDAEKAQGQKKVEELEGEITTLNHKLQDASAEVERLRRENQVLSVRIADKKYYPSSQDSS | 1.5
Rluc-BST2, Q10589 L37A (protein) MASTSYDYCRVPMEDGDKRCKLLLGIGILVLLIIVIAGVPLIIFTIKANSEACRDGLRAVMECRNVTHLLQQELTEAQKGFQDVEAQAATCNHTVMALMASLDAEKAQGQKKVEELEGEITTLNHKLQDASAEVERLRRENQVLSVRIADKKYYPSSQDSS | 0.77
Rluc-BST2, Q10589 I42A (protein) MASTSYDYCRVPMEDGDKRCKLLLGIGILVLLIIVILGVPLAIFTIKANSEACRDGLRAVMECRNVTHLLQQELTEAQKGFQDVEAQAATCNHTVMALMASLDAEKAQGQKKVEELEGEITTLNHKLQDASAEVERLRRENQVLSVRIADKKYYPSSQDSS | 1.4
